Experiment [1] concerns the target SARS-CoV-2 Delta株S-ECD蛋白 (SARS-CoV-2 Delta株 (B.1.617.2), UniProt P0DTC2 14-1213).
In experiment [2] the target is SARS-CoV-2 Alpha株S-ECD蛋白 (SARS-CoV-2 Alpha株 (B.1.1.7), UniProt P0DTC2 14-1213).
Experiment [3] addresses SARS-CoV-2 Beta株S-ECD蛋白 (SARS-CoV-2 Beta株 (B.1.351), UniProt P0DTC2 14-1213).
In experiment [4] the target is SARS-CoV-2 Gamma株S-ECD蛋白 (SARS-CoV-2 Gamma株 (P.1), UniProt P0DTC2 14-1213).

B1: 抗SARS-CoV-2全人源单克隆抗体ZWC6 (antibody, human IgG1, kappa, V domains shown)
VH: EVQLVESGGGVVQPGTSLRLSCAASGFSFSHYVMYWVRQAPGKGLDWVAIISFDGSSQYYADSVKGRFTISRDNSKDTLYLQMHSLRPEDTAVYYCAIHGGTYYYDKNILAWGQGTLVTVSS
VL: AIRMTQSPPTLSLSPGERATLSCRASQSVTNYLVWYQQKPGQAPRLLIYDTFNRATGIPARFSGSGSGTDFTLTISSLEPEDFAVYYCQQRSNWPPTFGQGTKVDIKR
By Kd is commonly meant the constant that tells how readily two partners part at equilibrium. As a reminder, the koff is a measure of how fast the partners let go of each other. Broadly, the kon is a measure of how fast the partners come together. Low values mean slow association, high ones fast association. Take B1: the Kd in experiment [1] came out at 4.21 nM; in experiment [2] it was 0.938 nM; in experiment [3], 0.658 nM; in experiment [4], 1.2 nM. In addition, the koff in experiment [1] was determined as 0.000305 s⁻¹; in experiment [2], 0.000164 s⁻¹; in experiment [3], 0.000121 s⁻¹; in experiment [4], 0.000182 s⁻¹. The kon in experiment [1] was determined as 72400 M⁻¹ s⁻¹; in experiment [2] it was 175000 M⁻¹ s⁻¹; in experiment [3], 184000 M⁻¹ s⁻¹; in experiment [4], 151000 M⁻¹ s⁻¹.

Values taken from CN113735970A (INST MILITARY MEDICINE ACADEMY MILITARY SCIENCES PLA, dated 2021).
